Assay [1] deals with Drosophila ORC1–5 (ORC lacking Orc6), purified, 6×His-Orc1 and MBP–Orc4 (Drosophila melanogaster) (UniProt O16810). As to the kind of experiment: fluorescence polarisation; fluorescence anisotropy, apparent Kd; 30 nM Orc6 N-terminally labelled with Alexa Fluor 488, ORC1–5 in twofold dilutions from 1 µM to 122 pM; 50 mM Tris HCl pH 7.8, 300 mM KCl, 5% glycerol, 1 mM DTT, 0.1 mg/ml BSA; 1 hr on ice; single-site fit with ligand depletion. (Polarisation of emitted light reports the rotation of a fluorescent probe.)

Assay [2] deals with T1, Drosophila Orc1 in untagged recombinant ORC (Drosophila melanogaster, UniProt O16810 1-924).
T1 construct: Drosophila Orc1; source: High5 cells co-infected with six baculoviruses, co-purified (Ni, amylose, TEV, gel filtration); not shown: 6×His, N-terminal, cleaved
T1 sequence (looked up): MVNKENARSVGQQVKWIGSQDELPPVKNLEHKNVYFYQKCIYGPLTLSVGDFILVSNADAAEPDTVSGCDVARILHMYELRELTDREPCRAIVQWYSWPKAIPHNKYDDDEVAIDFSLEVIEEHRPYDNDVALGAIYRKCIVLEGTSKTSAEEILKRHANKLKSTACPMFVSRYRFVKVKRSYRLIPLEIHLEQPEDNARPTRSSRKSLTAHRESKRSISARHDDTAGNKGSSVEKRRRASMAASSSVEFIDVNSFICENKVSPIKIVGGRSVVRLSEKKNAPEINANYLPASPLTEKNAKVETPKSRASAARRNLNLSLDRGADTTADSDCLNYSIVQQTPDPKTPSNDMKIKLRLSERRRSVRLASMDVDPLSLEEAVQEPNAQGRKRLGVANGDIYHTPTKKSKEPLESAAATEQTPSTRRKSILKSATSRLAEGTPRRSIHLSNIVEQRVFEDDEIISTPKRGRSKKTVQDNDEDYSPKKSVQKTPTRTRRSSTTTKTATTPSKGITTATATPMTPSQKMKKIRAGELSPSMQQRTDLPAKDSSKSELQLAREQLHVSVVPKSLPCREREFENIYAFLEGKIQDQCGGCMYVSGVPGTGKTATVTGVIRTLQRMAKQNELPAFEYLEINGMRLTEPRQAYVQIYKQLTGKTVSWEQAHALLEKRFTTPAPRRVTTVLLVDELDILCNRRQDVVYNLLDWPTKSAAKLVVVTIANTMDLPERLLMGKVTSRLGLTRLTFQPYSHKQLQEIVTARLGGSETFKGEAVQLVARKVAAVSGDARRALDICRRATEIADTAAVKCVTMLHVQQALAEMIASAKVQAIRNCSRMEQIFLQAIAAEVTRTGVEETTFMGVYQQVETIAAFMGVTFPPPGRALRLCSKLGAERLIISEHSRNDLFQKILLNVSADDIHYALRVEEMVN
Put plainly: SEC; analytical gel filtration of purified, co-expressed untagged Drosophila ORC on a Superose 6 column; elutes as a hexamer of ~390 kDa. Conditions: both partners purified. Background: SEC sorts molecules by how far they enter the pores of the column.

Assay [3] addresses T2, Drosophila ORC1–5 (ORC lacking Orc6), purified, 6×His-Orc1 and MBP–Orc4 (Drosophila melanogaster, UniProt O16810 1-924; Q24168 1-618; Q7K2L1 1-721; Q9W102 1-459; Q24169 1-460).
T2 construct: Drosophila Orc1; Drosophila Orc2, untagged; Drosophila Orc3, untagged; Drosophila Orc4; Drosophila Orc5, untagged; source: High5 cells co-infected with five baculoviruses, purified (Ni, amylose, gel filtration; TEV step omitted); not shown: 6×His, N-terminal, kept; MBP, N-terminal, kept; copies: + + + +
As to the kind of experiment: fluorescence polarisation; fluorescence anisotropy, apparent Kd; 30 nM Orc6 N-terminally labelled with Alexa Fluor 488, ORC1–5 in twofold dilutions from 1 µM to 122 pM; 50 mM Tris HCl pH 7.8, 300 mM KCl, 5% glycerol, 1 mM DTT, 0.1 mg/ml BSA; 1 hr on ice; single-site fit with ligand depletion. Conditions: both partners purified.

Assay [4] deals with T3, Drosophila ORC1–5 in MBP-tagged ORC for EM (6×His-Orc1, other subunits untagged) (Drosophila melanogaster, UniProt O16810 1-924; Q24168 1-618; Q7K2L1 1-721; Q9W102 1-459; Q24169 1-460).
T3 construct: Drosophila Orc1; Drosophila Orc2, untagged; Drosophila Orc3, untagged; Drosophila Orc4, untagged; Drosophila Orc5, untagged; source: High5 cells co-infected, co-purified with MBP–Orc6 187–257 (Ni, amylose, gel filtration; TEV step omitted); not shown: 6×His, N-terminal, kept; copies: + + + +
As to the kind of experiment: co-purification over several chromatography steps; MBP–Orc6 187–257 co-expressed with 6×His-Orc1 and untagged Orc2–Orc5 in High5 cells; Ni affinity, amylose affinity and gel filtration, TEV step omitted. The conditions noted are these: partners not purified.

Regarding “Drosophila Orc6-Y225S, N-terminal 6×His (from UniProt Q9Y1B2 1-257) (natural protein)”, the fold reduction of affinity against wild type Orc6 in assay [1] is over 100 fold.

B1: Drosophila Orc5 in untagged recombinant ORC (natural protein, Drosophila melanogaster, UniProt Q24169 1-460, looked up)
chain: MEAICSSLEPLFPCREAAIETLGELIGDSSETYPSAIYLFGHSGTGKTALTRAFLKECGKRQNVRTAHLNAIECYTTKIMLEILLDSLAPDQGDALKVDNMLDFVEQLRRQAATRVEDQGFLIAVDNAERLRDMDANVLPVLLRLQELTNLNLCVILLSQLPFEKFYNKTGLSEIVCLHLAQYNKAETQRILGSDFQQVRNQLLEQFAQDKKRLEICQEAVTEDFYNNYLNLFLSVFYKACRDVPELQLTARKCLSTYLEPVLDGTVDATDISRLWRHIAGPLRSALTQIYMRIEKPAEEVEDFTAIEDQSVRKLAQSLELPYYAKFLLIAAFLASHNAAKQDKRLFVKHHGKQRKRMQTVNARAKTTEKMSTTLGPKSFSIDRLLAIFYAILEEKVGLTCNLLSQISTLVHLNLLSFVSGEQNIMEGSARLQCTIGLEFVLQIGKVVGFNVRQYLCDFM
notes: Drosophila Orc5; the methods list Orc4 twice and leave Orc5 out of the untagged subunits; source: High5 cells co-infected with six baculoviruses, co-purified (Ni, amylose, TEV, gel filtration)
Turning to B1, the binding result in assay [2] is reported as “binds”.

B2: Drosophila Orc6 C-terminal domain (187–257), N-terminal 6×His (domain or fragment, Drosophila melanogaster, UniProt Q9Y1B2 187-257, looked up)
chain: KESKVPSSTDMEGKLKENQNENIKGHEAKKAHKPPPEDYEIWKARMLAKAQAKLKELEASQSHMDSQLLEA
modifications: Alexa Fluor 488 on the N-terminus (only in the fluorescence anisotropy assay)
notes: Drosophila Orc6, residues 187-257 (C-terminal domain); not detected in Western blots of whole-cell extract, but seen in the pull-downs; also called Orc6 187–257; Orc6 CTD; source: High5 cells (baculovirus): in lysate of co-infected cells; also purified (HisTrap, gel filtration); not shown: 6×His, N-terminal, kept
Regarding B2, the Kd in assay [3] was determined as 4.8 ± 0.6 nM.

B3: Drosophila MBP–Orc6 187–257 (domain or fragment, Drosophila melanogaster, UniProt Q9Y1B2 187-257, looked up)
chain: KESKVPSSTDMEGKLKENQNENIKGHEAKKAHKPPPEDYEIWKARMLAKAQAKLKELEASQSHMDSQLLEA
notes: Drosophila Orc6, residues 187-257; also called N-terminally MBP-tagged C-terminal domain of Orc6 (amino acids 187–257); MBP-fusion of the C-terminal domain of Orc6; source: High5 cells co-infected with the ORC1–5 subunits, co-purified (Ni, amylose, gel filtration); not shown: MBP, N-terminal, kept
For B3, the binding result in assay [4] was “binds”.

B4: Drosophila Orc6, full-length (1–257), N-terminal 6×His (natural protein, Drosophila melanogaster, UniProt Q9Y1B2 1-257, looked up)
chain: MTTLIEQLITKMGLREEPNVLEKTTELVRLLELRSTNVPLQINEYGKIVLCADLASCMIGIAFDKEQALKLSGLRKSQYLNNKRMFEKLLDLNKLASVNDICVQLGLNEVARKAEELMTLFKGVAATEDMGTDTSHPQYATMAVFQACRLLKKKVSKSKLMPFSNLRPSQFQLLEQQWERMIAKHHKESKVPSSTDMEGKLKENQNENIKGHEAKKAHKPPPEDYEIWKARMLAKAQAKLKELEASQSHMDSQLLEA
modifications: Alexa Fluor 488 on the N-terminus (only in the fluorescence anisotropy assay)
notes: Drosophila Orc6, residues 1-257; also called wild-type Orc6; Orc6 WT; source: High5 cells (baculovirus): in lysate of co-infected cells; also purified (HisTrap, gel filtration); not shown: 6×His, N-terminal, kept
On to B4, for which the Kd in assay [3] is 5 ± 0.7 nM.

B5: Drosophila Orc6 in untagged recombinant ORC (natural protein, Drosophila melanogaster, UniProt Q9Y1B2 1-257, looked up)
chain: MTTLIEQLITKMGLREEPNVLEKTTELVRLLELRSTNVPLQINEYGKIVLCADLASCMIGIAFDKEQALKLSGLRKSQYLNNKRMFEKLLDLNKLASVNDICVQLGLNEVARKAEELMTLFKGVAATEDMGTDTSHPQYATMAVFQACRLLKKKVSKSKLMPFSNLRPSQFQLLEQQWERMIAKHHKESKVPSSTDMEGKLKENQNENIKGHEAKKAHKPPPEDYEIWKARMLAKAQAKLKELEASQSHMDSQLLEA
notes: Drosophila Orc6, no purification tag; source: High5 cells co-infected with six baculoviruses, co-purified (Ni, amylose, TEV, gel filtration)
For the molecule B5, in assay [2], the binding result is given as “binds”.

B6: Drosophila Orc4 in untagged recombinant ORC (natural protein, Drosophila melanogaster, UniProt Q9W102 1-459, looked up)
chain: MPEADRELVSIRRFLKERLQRDYTTLRGYAKERSNVRLLLQRTAEMGESNSLLLLGPRGSGKTTLINSVLADLLPNKSFGENTLIVHLDGNLHTDDRVALKSITVQMQLENAADGKVFGSFAENLAFLLQCLKAGGKHSKSVIFILEEFDLFCAHHNQTLLYNLFDVSQSAQAPICVLGVTCRLDVIELLEKRVKSRFSHRQVFLFPSLRRFEDYVDLCRDLLSLPTGNSLLLAAEKIYNLQNIQSGALYFSRNHFDPGEYGFSPRLRDAWNKQICKVLATQQARSTLQALHDFDISEAYLKNFLFRLVAHLRPQSPHITAEKMAAVGSQFEGDDKIELLCGLSVLELCLIIAIKHHSQIYDRDSFNFEIIYARFSKFAKVSTTMQAVERSIVLKAFEHLRIAELIMPLTGGAGGGVGKVQKEFEMHKLALTYSQIHHCMQRYQALPTEVAQWAQSSLI
notes: Drosophila Orc4; source: High5 cells co-infected with six baculoviruses, co-purified (Ni, amylose, TEV, gel filtration); not shown: MBP, N-terminal, cleaved
For the molecule B6, in assay [2], the binding result was “binds”.

B7: Drosophila Orc3 in untagged recombinant ORC (natural protein, Drosophila melanogaster, UniProt Q7K2L1 1-721, looked up)
chain: MDPTISVSKGCFVYKNGATRAGKKAASKRKRPAAESSSLLGKEVVQQPFYEEYRKAWNQINDHIADLQHRSYARTLEQLVDFVVGQAERDTPDEVLPTAALLTGINQPDHLSQFTALTQRLHAQRAAMVCVLQSRDCATLKAAVETLVFGLVEDNAEVEQMEDEDEDEDGAERDRKRLRRSQCTMKQLKSWYTNNFDSEQKRRQLVVILPDFECFNASVLQDLILILSAHCGSLPFVLVLGVATAMTAVHGTLPYHVSSKIRLRVFQTQAAPTGLNEVLDKVLLSPKYAFHLSGKTFKFLTHIFLYYDFSIHGFIQGFKYCLMEHFFGGNAFALCTDYSKALGRIKQLTHEDMETIRRLPSFRPYVEQINDCKRIIAVLTDDDYLKKKLPQLLRDCLLHFLLFRCSLEFLTELVGDLPRCPLGKLRRELYVNCLNRAIISTPEYKECLQMLSFLSKDEFVAKVNRALERTEQFLVEEIAPLELGEACTAVLRPKLEAIRLAVDEVVKATMATITTTSPNETRQATDHLTPVASRQELKDQLLQRSKEDKMRHQLNTPTTQFGRALQKTLQLIETQIVQDHLRALQDAPPIHELFVFSDIATVRRNIIGAPRAALHTALNNPHFYMQCKCCELQDQSLLVGTLPDLSVVYKLHLECGRMINLFDWLQAFRSVVSDSDHEEVAQEQIDPQIQARFTRAVAELQFLGYIKMSKRKTDHATRLTW
notes: Drosophila Orc3, no purification tag; source: High5 cells co-infected with six baculoviruses, co-purified (Ni, amylose, TEV, gel filtration)
Take B7: in assay [2], the binding result is listed as “binds”.

B8: Drosophila Orc2 in untagged recombinant ORC (natural protein, Drosophila melanogaster, UniProt Q24168 1-618, looked up)
chain: MSASNKGGYKTPRKENLMSIENLTNSEEESEDLNTAMVGNAVESQPKVTSRRSTRRPSPTKKYQAYQKESNGKGQEERIVVNYVEMSDERSSDAEDQEEEESIEESENAARPAAKDLHLIQSEYNVAGTSMFGFNTPKKRDAMALAALNATPCTPKTPKTPRLGVKTPDTKRKKSMDQPKTPAHVRTRVKKQIAKIVADSDEDFSGDESDFRPSDEESSSSSSSSDAGNSSDNDAADDEPKTPSRARRAIVVPVLPKTPSAARLRQSARAKKSNEFVPESDGYFHSHASSKILTSDHTLDRLKNPRLAADRVFSLLSEIKTSAEHEGSINAIMEEYRSYFPKWMCILNEGFNILLYGLGSKHQLLQSFHREVLHKQTVLVVNGFFPSLTIKDMLDSITSDILDAGISPANPHEAVDMIEEEFALIPETHLFLIVHNLDGAMLRNVKAQAILSRLARIPNIHLLASIDHINTPLLWDQGKLCSFNFSWWDCTTMLPYTNETAFENSLLVQNSGELALSSMRSVFSSLTTNSRGIYMLIVKYQLKNKGNATYQGMPFRDLYSSCREAFLVSSDLALRAQLTEFLDHKLVKSKRSVDGSEQLTIPIDGALLQQFLEEQEKK
notes: Drosophila Orc2, no purification tag; source: High5 cells co-infected with six baculoviruses, co-purified (Ni, amylose, TEV, gel filtration)
Take B8: the binding result in assay [2] is on record as “binds”.

(Values after article PMC3791464 (eLife, 2013).)
